These are literature values, as cited in publication PMC2933916.

In this data set the target is S100B (UniProt P04271).

As usually defined, the Kd is the equilibrium constant for the complex coming apart. S100B (from UniProt P04271): the dissociation constant Kd is under 500 pM.
